Results on one protein are retold here after article PMC4840175, “A Substrate Mimic Allows High-Throughput Assay of the FabA Protein and Consequently the Identification of a Novel Inhibitor of Pseudomonas aeruginosa FabA” (Journal of Molecular Biology, 2016).

Substrate in the series: CCCCCCCC(O)CC(=O)SCCNC(C)=O
The experiment in a line: enzyme turnover, coupled PaFabA-PaFabV fluorescence assay (estimated KM) and direct UV assay. It counts as biochemical, Pseudomonas aeruginosa.

B1: PaFabA (3-hydroxyacyl-[ACP] dehydratase) (Pseudomonas aeruginosa PAO1) (protein)
chain: MTKQHAFTREDLLRCSRGELFGPGNAQLPAPNMLMIDRIVHISDVGGKYGKGELVAELDINPDLWFFACHFEGDPVMPGCLGLDAMWQLVGFYLGWQGNPGRGRALGSGEVKFFGQVLPTAKKVTYNIHIKRTINRSLVLAIADGTVSVDGREIYSAEGLRVGLFTSTDSF
Turning to B1, the Km (as a rule, the concentration of substrate that gives half-maximal velocity) is 400 µM.
